B1: COUP transcription factor 1, residues 83 to 159; numbered along this chain, P10589 (parent)
chain: HIECVVCGDKSSGKHYGQFTCEGCKSFFKRSVRRNLTYTCRANRNCPIDQHHRNQCQYCRLKKCLKVGMRREAVQRG

Variants of: B1
Assay: abundance fitness (aPCA) (normalised: wild type 0, dead -1); higher = more abundant; growth selection in yeast, the domain comes from the species named
Settings: Homo sapiens

Abundance fitness: each site, then its substitutions
E22: Y -0.342
G23: A -0.153; C 0.001; D 0.418; F 0.044; H 0.287; K -0.044; L -0.544; Q 0.031; R -0.081; S -0.174; T -0.009; V -0.338; W 0.189; Y 0.152
C24: A -0.841; D -0.335; E -1.1; I -0.509; K -0.697; L -0.841; M -1.08; N -0.702; P -0.609; Q -1.04; R -0.795; S -0.901; T -0.885; W -0.707; Y -0.319
K25: A 0.09; C 0.087; D 0.183; E 0.183; F 0.168; G 0.064; H 0.283; L -0.031; M 0.177; P -0.492; R 0.095; S 0.067; T 0.011; V 0.025; W 0.003
S26: A -0.184; C -0.127; D -0.32; E 0.144; F -0.275; G 0.238; H -0.137; I -0.611; K 0.321; L -0.035; M 0.298; P -0.812; Q 0.247; R -0.019; T 0.139; V 0.088; W 0.014
F27: A -0.812; D -0.783; E -0.519; G -0.83; H -0.634; I -0.86; K -0.968; L -0.819; N -0.222; Q -0.739; R -0.515; S -0.815; T -1.1; V -0.692; W -0.733; Y -0.61
F28: A -0.809; C -0.757; D -0.991; E -0.539; G -1.05; K -0.419; L -0.754; M -0.591; P -1.04; Q -0.809; R -0.698; S -0.813; T -1.2; V -0.807; W -0.069; Y -0.42
K29: A -0.079; C -0.705; D 0.153; E 0.103; F -0.147; G 0.068; H -0.048; I -0.22; L -0.186; M -0.055; N -0.01; P -0.534; Q 0.03; R -0.181; S -0.058; T 0.026; V 0.013; W -0.149
R30: A -0.091; C 0.067; E 0.054; G -0.079; H -0.359; K 0.389; L -0.195; N -0.028; Q -0.411; S -0.157; V 0.08; Y -0.186
S31: A 0.036; C 0.075; E -0.336; G -0.598; H -0.176; I 0.014; K -0.688; L -0.571; Q 0.053; R -0.955; T -0.027; V -0.155; W -0.185; Y -0.169
V32: A -0.151; C -0.798; D -0.265; E -0.072; F -0.068; G -0.378; H 0.19; I -0.089; K -0.181; L -0.26; M 0.072; N -0.196; P -0.393; Q -0.299; R -0.66; S -0.336; W -0.784; Y -0.062
R33: A 0.142; C -0.698; D 0.013; E 0.099; F -0.51; G -0.029; I 0.086; K -0.022; L 0.109; M -0.045; P -0.771; Q 0.272; T 0.096; W 0.068
R34: A 0.268; C -0.759; G 0.131; I 0.091; L -0.161; M -0.002; P -0.308; Q 0.018; S -0.193; T -0.295; V -0.137; W -0.25; Y -0.263
N35: C 0.538; E 0.161; G -0.003; H -0.256; K 0.085; L -0.513; M -0.118; P -0.402; R -0.196; S -0.508; T -0.346; V -0.104; W -0.38
L36: A -0.064; C -0.206; D -0.232; E 0.162; G -0.17; H 0.095; K 0.126; M -0.085; P 0.03; Q -0.113; R -0.082; S -0.147; V 0.007
T37: A 0.085; C -0.048; E 0.178; F -0.101; G 0.06; H 0.133; I -0.038; K 0.139; L -0.057; M -0.215; N 0.081; Q -0.104; R 0.092; S -0.009; V 0.044; W 0.138; Y -0.254
Y38: A -0.378; C -0.745; D -0.509; E -0.226; F -0.089; G -0.458; I -0.24; K -0.831; M -0.059; N -0.772; P 0.094; Q -0.464; R -0.662; S -0.791; T -0.669; V -0.257; W -0.658
T39: A 0.17; C -0.244; D 0.12; E 0.191; F 0.23; G -0.099; I -0.019; K -0.083; M -0.126; N 0.103; P -0.359; Q 0.04; R -0.108; S 0.113; V 0.013; W 0.057
C40: A -0.885; D -0.51; E -0.683; G -0.731; H -1.21; I -0.496; K -0.384; L -0.786; P -0.941; Q -0.848; R -0.864; S -1.08; T -0.503; V -0.861; W -0.712; Y -0.704
R41: A 0.207; C 0.038; D 0.085; E 0.107; F -0.239; G 0.188; H 0.051; I 0.135; K 0.301; L 0.228; M 0.08; N 0.21; P 0.265; S 0.176; T -0.068; W 0.145; Y 0.088
A42: E 0.084; F -0.282; G 0.217; H -0.068; K 0.002; L 0; N -0.45; Q 0.239; R -0.111; S 0.047; T -0.256; V 0.09; W -0.123; Y 0.109
N43: A 0.152; D 0.278; E 0.227; F -0.22; G 0.051; H -0.319; I -0.335; K 0.018; L -0.054; M -0.222; P -0.256; Q 0.027; R 0.012; S 0.011; T -0.051; V 0.128; W 0.015; Y -0.374
R44: A 0.077; C -0.153; D 0.084; E 0.082; F -0.207; H -0.003; I 0.038; K -0.071; M 0.057; N 0.11

From the Human Domainome abundance scans (Beltran et al. 2025)
